Test results reported in the supplement of paper PMC9170038.

Tested on: MS2 coat protein
Experiment: apparent KD of MS2 coat protein; higher = weaker reporter binding
Conditions: Eterna round: R107
How it was run: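 Designed RNA switches, transcribed on-chip from Illumina sequencing clusters, were titrated with SNAP-549-labelled MS2 coat protein from 0.7 or 1.5 nM to 3 µM in twofold steps. The solution was 100 mM Tris-HCl pH 7.5, 80 mM KCl, 4 mM MgCl2, with constant ligand or without it. Apparent KD is the median over each design's normalised cluster binding-curve fits.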

[1] = input ligand: theophylline 20 uM
[2] = input ligand: theophylline 2 mM
[3] = input ligand: tryptophan 2.4 mM

| Sequence | apparent KD of MS2 coat protein (input ligand: arginine 13.2 mM) [nM] | apparent KD of MS2 coat protein (input ligand: none) [nM] | apparent KD of MS2 coat protein [1] [nM] | apparent KD of MS2 coat protein [2] [nM] | apparent KD of MS2 coat protein [3] [nM] |
| --- | --- | --- | --- | --- | --- |
| GGACUAACCUGAAGGAGCGGCGCGCAGAAACUGCAAAUUCCUCCACACGAGGAUCACCCGUGUCAGGUAGGUCGCAGGUUAGUCG [ArgBX 28] | 11.5 | 12.1 | 16.6 | 12.6 | 12.7 |
| GCUAUGGCUAGAAGGAGCGUGAAUUUCAGAAAACAUGAGGAUCACCCAUGUAAGGAUAUGACACAGGUAGGUCGCUAGCCAUAGC [SSAB NP+V+V2 #19] | 9.88 | 10.8 | 10.5 | 12.5 | 10.8 |
| CCCUGGGUGGGAAGGAGCGCAUAUUCAACAUGAGGAUCACCCAUGUACAGACGUGAGUCAUUGCAGGUAGGUCGCCCACCCAGGG [SS-ArgB21] | 12.9 | 15.7 | 20.4 | 14.8 | 15.5 |
| CACAUGAGGAUCACCCAUGUCUGAACUGAAGGAGCGCUAAACAAGGCAGGUAGGUCGCGGAAUUUUGUGUGCAUAUGCAUAUGGG [9.N] | 21.6 | 24.5 | 36.3 | 26.9 | 24.8 |
| UUAAGAGGCUAUCAAAUUUGAUUUUGUGAUACCAGAAUAAUUUUAUUCCCUUGGCAGCAUGACAUGAGGAUCACCCAUGUGUCUU [SSTheo A #2] | 33.8 | – | 40.2 | – | 34.6 |
| GAGCGCGUGGACUGGCGUGCUCCGCUCCGUCGAGGACCGGUACGGCCGCCACUCGACAUGAGGAUCACCCAUGUGCGCGCUCGCU [#1 Exclusion - Tryptophan A Attempt #23 (HarryS)] | 7.37 | 27 | 177 | 27.8 | 19.8 |
| ACUAGUUGUGCAGAUACCAGAUAUGAGGAUCACCCAUAUUUGGGAUGUUCGCAUCUUCCUGUCCCUUGGCAGCUGUACAUCUAGA [Omei Theo B Exc v7] | 37.9 | 37.3 | 86.7 | 107 | 33.9 |
| GGGUACAUCGCGGCCGCCACUUGUGUAAAUACAUGAGGAUCACCCAUGUCGAUGGAGACAUCGGGAAGGACCGGGUGAUGUACCG | 218 | 342 | 802 | 1200 | 650 |
| UUGGGUUUGCGAAGGAGCGGGAAAUAUAUAUAUAUAAUCCUAACAUGAGGAUCACCCAUGUCCCAGGUAGGUCGCGCGGGUUUGG [12.M] | 42 | 59.5 | 61.9 | 54.3 | 51.2 |
| GGUUACUCUACGGCCGCCACUGUAAAGUAAAGAUUACUGUACAUGACAUGAGGAUCACCCAUGUACAGGACCGGGUAGUGUAACC [Tryptophan B 15] | 32.2 | – | 46.3 | 35.5 | – |
| UUGGUACGACAGCUCAUAUAAGCAUGUGAUACCAGACUGGAAACAGUCCCUUGGCAGCACUUUACAUGAGGAUCACCCAUGUCGG [EThA NP+V+V2 #3 +-Same Structure] | 76.6 | – | 201 | – | 212 |
| UUUAGUCAAUCGGCCGCCACUGACAUGAGGAUCACCCAUGUAGGUAAGGAUCAACCUCGAAAGUACAGGACCGGGAUUCGCCUCU [theeternabot_exclusion_MS2_Trp_B_45] | 51.7 | – | 67.6 | 65 | – |
| AUUGCGAGUGAGUCGUGUAACGAUUCAGAUACCAGGCAUUUCGUUGUCCCUUGGCAGCUGUCUUACAUGAGGAUCACCCAUGUUA [#29 Exclusion-TheophyllineA] | 23.8 | – | 54.8 | – | 56.3 |
| GAACAUGAGGAUCACCCAUGUGAGAAUGAUACCAGUAGAAGAAGAUGCCCUUGGCAGCGUGCGUGAGGAUCACCCAUGUAGGAGG [e-theoA-0] | 30 | – | 34.1 | – | 25.9 |
| UUCAGCUAGUCGGCCGCCACUACCUGAGGAUCACCCUGGUAGGUCCACACUGCUUCGGCAGUGAGUAGGACCGGGACUAGCUGAG | 18.3 | 23.2 | 25.2 | 19 | 52.7 |
| GAAGCUCGCGAUGAUACCAGCUCGACUGAUAACAUGAGGAUCACCCAUGUUGUGCGCCCUAGCCCUUGGCAGCAUGACAUAUUCG [theeternabot_sameState_MS2_Theo_B_46] | 47.5 | – | 126 | – | 97.8 |
| AACAUGAGGAUCUUCCUUAAGUGAACUGAAGGAGCGCCAGAUAUGGCAGGUAGGUCGCAGCGAACAUGAGGAUCACCCAUGUUAA [Arg A Ex t3] | 38.1 | 29.4 | 33.1 | 56 | 53.7 |
